This passage reports Kd, koff and kon results from patent US20200031927A1.

Experiment [1] concerns the target soluble KIR3DL1*002-Fc (human) (UniProt P43629). Nature of the experiment: SPR (BIACORE T-100). Background: SPR reads the build-up and loss of mass on a sensor chip optically.
For experiment [2], the target named is soluble KIR3DL1*001-Fc (human) (UniProt P43629). The experiment can be described thus: SPR (BIACORE T-100).
Experiment [3] addresses soluble KIR3DL1*033-Fc (human) (UniProt P43629). The experiment can be described thus: SPR (BIACORE T-100).
Experiment [4] concerns the target soluble KIR3DL1*002-Fc (human) (UniProt P43629). The experiment can be described thus: SPR (BIACORE T-100), kinetics.

soluble KIR3DL1*002-Fc (human), sequence (P43629 other isoform, or with tags, fused parts or gaps): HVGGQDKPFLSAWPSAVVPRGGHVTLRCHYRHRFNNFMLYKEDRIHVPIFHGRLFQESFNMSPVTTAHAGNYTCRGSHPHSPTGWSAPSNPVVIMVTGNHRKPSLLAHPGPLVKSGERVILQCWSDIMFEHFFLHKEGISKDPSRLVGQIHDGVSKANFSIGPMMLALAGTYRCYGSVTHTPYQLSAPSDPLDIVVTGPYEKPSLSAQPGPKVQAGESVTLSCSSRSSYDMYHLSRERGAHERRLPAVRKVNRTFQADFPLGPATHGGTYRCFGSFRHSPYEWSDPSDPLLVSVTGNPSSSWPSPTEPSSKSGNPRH
soluble KIR3DL1*033-Fc (human), sequence (P43629 other isoform, or with tags, fused parts or gaps): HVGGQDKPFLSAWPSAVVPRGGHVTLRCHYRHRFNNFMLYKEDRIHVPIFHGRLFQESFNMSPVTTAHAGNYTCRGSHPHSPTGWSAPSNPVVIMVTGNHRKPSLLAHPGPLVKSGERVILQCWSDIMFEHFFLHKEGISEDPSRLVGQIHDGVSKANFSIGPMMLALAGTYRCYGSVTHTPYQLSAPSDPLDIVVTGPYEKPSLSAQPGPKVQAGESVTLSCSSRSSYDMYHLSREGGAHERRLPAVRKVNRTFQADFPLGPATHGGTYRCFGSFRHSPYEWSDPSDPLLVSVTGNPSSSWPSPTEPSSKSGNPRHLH

Take DX9 (PHB4385) (antibody): the Kd in experiment [1] was 0.0306 µM; in experiment [2] it was 0.0141 µM; in experiment [3], 0.0086 µM; in experiment [4], 0.0306 µM. The substance further returned a dissociation rate constant (koff) in experiment [4] of 0.000992 s⁻¹. In addition, the kon in experiment [4] was 32400 M⁻¹ s⁻¹.

As a reminder, the Kd is the free concentration of one partner at which half of the binding sites on the other are occupied at equilibrium, for simple one-to-one binding. A higher Kd goes with lower affinity. Broadly, the koff is a measure of how fast the partners let go of each other. What is called kon is the second-order rate constant of association. A low value points to slower complex formation.
